US10544421 (NEW YORK STRUCTURAL BIOLOGY CENTER, dated 2020)

Target: T1, recombinant human acetylcholinesterase (rhAChE), cleaved protein from codon 33 to codon 574 (human, UniProt P22303 33-574)
T1 construct: range 33-574; Expressed in HEK 293-H cells, secreted, tag removed with his-TEV protease; also called purified rhAChE; human AChE
Assay: co-crystal of rhAChE complexed with fasciculin-2, X-ray crystallography (PDB 4EY8)
Protocol: A crystallization buffer 44 is provided. The preferred crystallization buffer 44 contains 15-21% polyethylene glycol (PEG) 3350 and 0.17-0.21M potassium nitrate. Crystals of rhAChE are grown by sitting drop vapor diffusion at 22° C. against the crystallization buffer 44. See Block 46. Clustered hexagonal rod-shaped crystals (20×20×600 µm) are typically nucleated within 5 days and grow to full size within 3 days. Once the crystals are full size, they are harvested and flash frozen using liquid nitrogen. See Block 48. The harvested crystals 10 can then be cut and subjected to X-ray crystallography and modeling in the traditional manner. See Block 50. Since the rhAChE crystals 10 are not complexed, the X-ray crystallography produces models that more accurately represent AChE in the human brain. Additionally, the active sites that are obfuscated by snake venom in the prior art are open and active.
Referring to FIG. 4 in conjunction with FIG. 1, it will be understood that in order to complex the rhAChE crystals 10, a small volume of the complexing ligand 52 is added to the crystallization buffer 44 to create a modified crystallization buffer 54. Crystals of complexed rhAChE are grown by sitting drop vapor diffusion against the modified crystallization buffer 54. The crystals are then grown, harvested and imaged in the manner previously described.

B1: fasciculin-2 (other)
chain: TMCYSHTTTSRAILTNCGENSCYRKSRRHPPKMVLGRGCGCPPGDDNLEVKCCTSPDKCNY
notes: Used as the complexing ligand in rhAChE crystals; also called snake venom fasciculin-2
binding result: binds
